Experimental data: the supplement of paper PMC10567573

B1: ZNF449 (parent)
chain: RIHSGEEPHKCPECGKRFLRSSDL
B2: DCAF4 (parent)
chain: TTKCVRQYEGHVNEYAYLPLHVHE

Variants of: B1
Experiment: protein stability index of a GFP-peptide fusion (GPS, HEK-293T) (PSI 1-6); higher = more stable
Settings: c terminus: a fixed tail appended
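Further: lentivirally expressed fusions sorted by FACS into six bins by GFP to DsRed ratio, PSI derived from sequencing read proportions per bin multiplied by bin number.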

Going from RIHSGEEPHKCPECGKRFLRSSVL [D23V] to RIHSGEEPHKCPECGKRFLRSSYL [D23Y], the protein stability index falls from 1.73 to 1.72.

Going from RIHSGEEPHKCPECGKRFLRSSDA [L24A] to RIHSGEEPHKCPECGKRFLRSSDC [L24C], the protein stability index falls from 3.92 to 3.63.

First: RIHSGEEPHKCPECGKRFLRSSDD [L24D]
Second: RIHSGEEPHKCPECGKRFLRSSDE [L24E]
The protein stability index of the first is higher: 4.61 for the first, 4.42 for the second.

First: RIHSGEEPHKCPECGKRFLRSSDF [L24F]
Second: RIHSGEEPHKCPECGKRFLRSSDG [L24G]
The protein stability index of the first is lower: 3.3 for the first, 3.82 for the second.

Compared with RIHSGEEPHKCPECGKRFLRSSDH [L24H], RIHSGEEPHKCPECGKRFLRSSDI [L24I] is lower in protein stability index: 3.63 for the first, 2.5 for the second.

First: RIHSGEEPHKCPECGKRFLRSSDK [L24K]
Second: RIHSGEEPHKCPECGKRFLRSSDM [L24M]
The protein stability index of the first is higher: 3.96 for the first, 3.41 for the second.

Going from RIHSGEEPHKCPECGKRFLRSSDN [L24N] to RIHSGEEPHKCPECGKRFLRSSDP [L24P], the protein stability index rises from 3.89 to 4.12.

Compared with RIHSGEEPHKCPECGKRFLRSSDQ [L24Q], RIHSGEEPHKCPECGKRFLRSSDR [L24R] is lower in protein stability index: 4.91 for the first, 2.29 for the second.

Going from RIHSGEEPHKCPECGKRFLRSSDS [L24S] to RIHSGEEPHKCPECGKRFLRSSDT [L24T], the protein stability index falls from 3.88 to 3.79.

Going from RIHSGEEPHKCPECGKRFLRSSDV [L24V] to RIHSGEEPHKCPECGKRFLRSSDW [L24W], the protein stability index falls from 3.31 to 2.93.

Variant RIHSGEEPHKCPECGKRFLRSSDY [L24Y] has a protein stability index of 3.29.

Variants of: B2
Experiment: as above
Settings: c terminus: a fixed tail appended

First: TTKAVRQYEGHVNEYAYLPLHVHE [C4A]
Second: TTKCVRQYEGFVNEYAYLPLHVHE [H11F]
The protein stability index of the first is higher: 3.14 for the first, 1.88 for the second.

Compared with TTKCVRQYEGHVNEFAYLPLHVHE [Y15F], TTKCVRQYEGHVNEYAYLPLHVHG [E24G] is lower in protein stability index: 3.08 for the first, 2.75 for the second.

Compared with TYKCVRQYEGHVNEYAYLPLHVHE [T2Y], TTKCVRQYEGHVNEYAYLPYHVHE [L20Y] is higher in protein stability index: 2.01 for the first, 2.32 for the second.

First: TTKCVRQYEGHVNEYALLPLHVHE [Y17L]
Second: TTKCVRQYEGHVNEDAYLPLHVHE [Y15D]
The protein stability index of the first is higher: 3.79 for the first, 3.36 for the second.

First: TTKCVRQYEGHVLEYAYLPLHVHE [N13L]
Second: TTKCVRQYEGHVNEYAYLPLQVHE [H21Q]
The protein stability index of the first is higher: 2.85 for the first, 2.66 for the second.

Going from TTKNVRQYEGHVNEYAYLPLHVHE [C4N] to TTKCSRQYEGHVNEYAYLPLHVHE [V5S], the protein stability index falls from 3.48 to 1.82.

First: TTKCVRVYEGHVNEYAYLPLHVHE [Q7V]
Second: TTKCVRQYEGHVSEYAYLPLHVHE [N13S]
The protein stability index of the first is lower: 2.24 for the first, 2.78 for the second.

Going from TTKCVRQYEGHVNEYAYLPLHVQE [H23Q] to TTKCVRQYEGHVNFYAYLPLHVHE [E14F], the protein stability index falls from 3.38 to 3.16.

Compared with TTKCVRQYEGHVNEYAYLPLCVHE [H21C], TTKCVRQYEGHLNEYAYLPLHVHE [V12L] is higher in protein stability index: 2.56 for the first, 2.76 for the second.

Going from TTKCVRQYEGHGNEYAYLPLHVHE [V12G] to TTKCVRQSEGHVNEYAYLPLHVHE [Y8S], the protein stability index rises from 3.13 to 3.19.

First: TTKCVRQYEGHVNEYAYLPLHVHN [E24N]
Second: TTKCVRQYEGHVNYYAYLPLHVHE [E14Y]
The protein stability index of the first is higher: 2.46 for the first, 1.64 for the second.

First: TTKCVRQYEGHVMEYAYLPLHVHE [N13M]
Second: TAKCVRQYEGHVNEYAYLPLHVHE [T2A]
The protein stability index of the first is lower: 1.88 for the first, 2.47 for the second.

Compared with TTKCVAQYEGHVNEYAYLPLHVHE [R6A], TTKGVRQYEGHVNEYAYLPLHVHE [C4G] is lower in protein stability index: 3.02 for the first, 2.67 for the second.

Going from TPKCVRQYEGHVNEYAYLPLHVHE [T2P] to TTKCVRQYEGHVNEYAYLCLHVHE [P19C], the protein stability index falls from 3.05 to 1.84.

First: TTKCVRQYEGHVNEYAYLPLHVLE [H23L]
Second: TTKCVRQYEGHVNEYAYLPNHVHE [L20N]
The protein stability index of the first is lower: 2.51 for the first, 3.1 for the second.

Compared with TTKCVRQYEGHVEEYAYLPLHVHE [N13E], TTKCVRQYEGHVNEYAYLPMHVHE [L20M] is lower in protein stability index: 3.55 for the first, 2.63 for the second.

Compared with TTKCERQYEGHVNEYAYLPLHVHE [V5E], LTKCVRQYEGHVNEYAYLPLHVHE [T1L] is lower in protein stability index: 3.29 for the first, 2.99 for the second.

First: TTKCVRQYEGHVNEYAYLPKHVHE [L20K]
Second: TTKCVFQYEGHVNEYAYLPLHVHE [R6F]
The protein stability index of the first is higher: 2.8 for the first, 1.8 for the second.

Compared with TTKCVRQYKGHVNEYAYLPLHVHE [E9K], TTKCVRQYEGHVNEYAYLPTHVHE [L20T] is higher in protein stability index: 2.13 for the first, 2.85 for the second.

Going from TTKCVRQYEGHVIEYAYLPLHVHE [N13I] to TTKCVRQYEGHVNEYAYFPLHVHE [L18F], the protein stability index rises from 1.66 to 2.51.

Going from TTKCVRQYEGHVNEYAYLPWHVHE [L20W] to TTKCVRQYEGHVNEYAYLPLHVHF [E24F], the protein stability index rises from 2.33 to 2.85.

First: TTKCVRQYIGHVNEYAYLPLHVHE [E9I]
Second: TTKCVIQYEGHVNEYAYLPLHVHE [R6I]
The protein stability index of the first is lower: 1.87 for the first, 2.11 for the second.

Going from TTKCVRQYEGHVNEYAYLPLHVHK [E24K] to TIKCVRQYEGHVNEYAYLPLHVHE [T2I], the protein stability index falls from 2.29 to 2.19.

First: TTKCVRQYEGHVNEYAYLPLSVHE [H21S]
Second: TTKCVRQYEGHVNEYANLPLHVHE [Y17N]
The protein stability index of the first is lower: 3.05 for the first, 3.08 for the second.

Going from TTKCVRQYEGHVNEYAYLPLHVYE [H23Y] to TTKCVRQYEGHVNNYAYLPLHVHE [E14N], the protein stability index rises from 2.24 to 2.47.

Going from STKCVRQYEGHVNEYAYLPLHVHE [T1S] to TTKCVRQYEGHVNEYAYLDLHVHE [P19D], the protein stability index falls from 3.81 to 3.02.

First: TTKCVRQYEGHVNEYAYAPLHVHE [L18A]
Second: TTKCVRQYEGHVNEYAYLGLHVHE [P19G]
The protein stability index of the first is higher: 2.92 for the first, 2.26 for the second.

First: TTKCVRQYEGHVNEYAYLPLHYHE [V22Y]
Second: TEKCVRQYEGHVNEYAYLPLHVHE [T2E]
The protein stability index of the first is lower: 2.43 for the first, 3.23 for the second.

First: TTKCVRQYEGHVNEYAYLHLHVHE [P19H]
Second: TTKCVRQYEGHVNEYAYLPLRVHE [H21R]
The protein stability index of the first is lower: 1.96 for the first, 2.69 for the second.

Compared with TTKCVRQYRGHVNEYAYLPLHVHE [E9R], ATKCVRQYEGHVNEYAYLPLHVHE [T1A] is higher in protein stability index: 2.18 for the first, 2.67 for the second.

Compared with THKCVRQYEGHVNEYAYLPLHVHE [T2H], TTKCVRQYEGHVNEYLYLPLHVHE [A16L] is higher in protein stability index: 2.32 for the first, 2.33 for the second.

First: TTKCVRQYEGHVNEYAYLPFHVHE [L20F]
Second: TTKCVWQYEGHVNEYAYLPLHVHE [R6W]
The protein stability index of the first is higher: 2.35 for the first, 1.73 for the second.

First: TTKCVRQYEGHPNEYAYLPLHVHE [V12P]
Second: TTKCVRQYCGHVNEYAYLPLHVHE [E9C]
The protein stability index of the first is higher: 2.69 for the first, 1.63 for the second.

Going from TTKCVRQYEGHVNEYAYSPLHVHE [L18S] to TTKCVRQYEGHVNEYAYIPLHVHE [L18I], the protein stability index falls from 2.98 to 2.26.

Going from TRKCVRQYEGHVNEYAYLPLHVHE [T2R] to TTKCVRQYEHHVNEYAYLPLHVHE [G10H], the protein stability index falls from 2.41 to 2.31.

First: TTKCVRQYEGHVNEYAYLPLHKHE [V22K]
Second: TTKCVRQYEGHVNENAYLPLHVHE [Y15N]
The protein stability index of the first is higher: 3.27 for the first, 2.88 for the second.

For TTKCVRQYEGHVNEYAYLPLHVKE [H23K], the protein stability index was 3.44.
